Measured values as given in US20160075744, “DNA-BINDING PROTEIN USING PPR MOTIF, AND USE THEREOF” (KYUSHU UNIVERSITY, NATATIONAL UNIVERSITY CORPORATION, published 2016).

Tests used:
pTac2-VP64 [1] = target: T1, pTac2-VP64 (Arabidopsis thaliana, UniProt Q9S7Q2 SEQ:106-632); assay: cell_activity; HEK293T dual luciferase, 8x target, vs pminCMV-luc2
T1 chain: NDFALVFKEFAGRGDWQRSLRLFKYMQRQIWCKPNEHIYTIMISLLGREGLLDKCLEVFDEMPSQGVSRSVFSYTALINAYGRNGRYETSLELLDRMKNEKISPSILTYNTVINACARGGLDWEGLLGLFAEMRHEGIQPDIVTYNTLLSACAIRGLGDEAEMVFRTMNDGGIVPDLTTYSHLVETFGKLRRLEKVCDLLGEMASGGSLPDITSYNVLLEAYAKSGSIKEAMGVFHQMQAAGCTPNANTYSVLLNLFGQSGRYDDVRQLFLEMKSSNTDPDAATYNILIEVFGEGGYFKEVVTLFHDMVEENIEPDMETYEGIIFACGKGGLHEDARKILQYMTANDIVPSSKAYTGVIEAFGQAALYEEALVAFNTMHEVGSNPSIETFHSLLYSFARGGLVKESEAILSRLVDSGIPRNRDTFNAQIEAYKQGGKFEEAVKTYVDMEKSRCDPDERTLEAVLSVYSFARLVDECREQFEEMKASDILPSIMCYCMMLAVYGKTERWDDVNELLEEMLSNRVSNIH
Description: (§1) The PPR-VP64 expression vector prepared in the section 1, the firefly luciferase expression vector prepared in the section 2, and the pRL-CMV vector (expression vector for Renilla luciferase, Promega) as a reference were introduced by using Lipofectamine LTX (Life Technologies). The DMEM medium (25 μl) was added to each well of a 96-well plate, and a mixture containing the PPR-VP64 expression vector (400 ng), firefly luciferase expression vector (100 ng), and pRL-CMV vector (20 ng) was further added. Then, a mixture of the DMEM medium (25 μl) and Lipofectamine LTX (0.7 μl) was added to each well, the plate was left standing at room temperature for 30 minutes, then 6×10⁴ of the HEK293 T cells suspended in the DMEM medium containing 15% fetal bovine serum (100 μl) were added, and the cells were cultured at 37° C. in a CO₂ incubator for 24 hours.
(§2) The luciferase activity was compared for the cases of introducing pTac2-VP64 or GUN1-VP64 together with pminCMV-luc2 for a negative control, or the reporter vector having 4 or 8 target sequences (table mentioned below, FIG. 6). The comparison of the activity was performed on the basis of standardized scores obtained by dividing the measured values obtained with Fluc (firefly luciferase) with the measured value obtained with Rluc (Renilla luciferase) as the reference (Fluc/Rluc). […]

GUN1-VP64 [2] = target: T2, GUN1-VP64 (Arabidopsis thaliana, UniProt Q9SIC9 SEQ:234-620); assay: cell_activity; HEK293T dual luciferase, 4x target, vs pminCMV-luc2
T2 chain: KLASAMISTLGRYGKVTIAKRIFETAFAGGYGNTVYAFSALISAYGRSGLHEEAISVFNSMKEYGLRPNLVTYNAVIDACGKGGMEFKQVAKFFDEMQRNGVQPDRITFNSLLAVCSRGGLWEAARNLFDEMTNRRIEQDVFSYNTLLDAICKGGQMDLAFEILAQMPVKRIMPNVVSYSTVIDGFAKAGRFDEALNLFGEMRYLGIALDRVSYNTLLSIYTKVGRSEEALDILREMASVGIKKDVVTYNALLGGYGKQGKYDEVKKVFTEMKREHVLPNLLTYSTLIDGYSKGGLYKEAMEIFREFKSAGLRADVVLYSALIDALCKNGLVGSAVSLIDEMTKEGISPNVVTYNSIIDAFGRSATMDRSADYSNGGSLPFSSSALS
Description: as §1, §2

GUN1-VP64 [3] = target: T2, GUN1-VP64; assay: cell_activity; HEK293T dual luciferase, 8x target, vs pminCMV-luc2
Description: as §1, §2

pTac2-VP64 [4] = target: T1, pTac2-VP64; assay: cell_activity; HEK293T dual luciferase, 4x target, vs pminCMV-luc2
Description: as §1, §2

B1: pTac2 target (8x in reporter) (dsDNA)
DNA 1: AACTTTCGTCACTCA
DNA 2: TGAGTGACGAAAGTT
- activity (pTac2-VP64 [1]): 4.81 fold activation

B2: GUN1 target (4x in reporter) (dsDNA)
DNA 1: AATTTGTCGAT
DNA 2: ATCGACAAATT
- activity (GUN1-VP64 [2]): 2.88 fold activation

B3: GUN1 target (8x in reporter) (dsDNA)
DNA 1: AATTTGTCGAT
DNA 2: ATCGACAAATT
- activity (GUN1-VP64 [3]): 3.15 fold activation

B4: pTac2 target (4x in reporter) (dsDNA)
DNA 1: AACTTTCGTCACTCA
DNA 2: TGAGTGACGAAAGTT
- activity (pTac2-VP64 [4]): 2.91 fold activation
